Laboratory results from paper PMC6405930, “Conservation of the Amyloid Interactome Across Diverse Fibrillar Structures” (Scientific Reports, 2019).

Columns and labels:
Test in all cases: Fibril incubation with plasma, quantitative MS/MS of bound proteins
αSN fibrils = αSN fibrils (Homo sapiens, UniProt P37840); assay type: binding; settings: 50:1 w/w plasma protein:fibril
Description: (§1) Plasma and CSF solutions were centrifuged (40,000 g, 20 min) to remove any aggregates. The protein concentration was determined using 280 nm absorbance assuming 1 Abs = 1 mg/mL. […] Control samples (without fibril material) were prepared similarly. All samples were incubated at room temperature for one hour under gentle agitation. Fibrils and fibril-bound proteins were pelleted by centrifugation at 17,000 g for 30 minutes. The supernatant (175 μL) was removed and the aggregate was re-suspended in 175 μL PBS and pelleted again before further preparation for gel analysis and spin-filter assisted digest for quantitative MS/MS.
(§2) The fibril-protein pellets were transferred to spin-filters (0.22 μm), washed twice in PBS (100 μL) and once in 1 M NaCl (100 μL). The fibrils and fibril-bound proteins were dissolved by one-hour incubation in 100 μL 6 M guanidinium chloride followed by elution from the spin-filter. The eluted proteins were loaded onto a 3 kDa MWCO filter unit for filter-assisted unfolding, reduction, alkylation, and trypsin digestion. In brief, samples were washed twice in 8 M urea, once in 8 M urea with 50 mM DTT, once in 8 M urea with 50 mM iodoaceteamide, and twice in 8 M Urea. The filter units were dried by centrifugation (14,000 g in 30 minutes) after every addition. Trypsin digestion was carried out with 0.25 μg sequencing grade trypsin from Sigma Aldrich in 50 mM ammonium bicarbonate overnight at 37 °C. The tryptic peptides were collected by centrifugation, acidified with TFA (0.1%) and micro-purified using POROS R2 column material (Applied Biosystems) packed in P200 pipette tips (Sarstedt).
(§3) LC-MS/MS analyses were performed on an EASY-nLC II system (Thermo Fisher Scientific) connected to a TripleTOF 5600+ mass spectrometer (Sciex) equipped with a NanoSpray III source (Sciex) and operated under Analyst TF 1.6.0 control.
(§4) The micro-purified tryptic peptides were dissolved in 0.1% formic acid, injected and trapped on an in-house packed trap column (2 cm × 100 μm I.D) with RP ReproSil-Pur C18-AQ 3 μm resin (Dr. Maisch GmbH). Peptides were eluted from the trap column and separated on a 15 cm analytical column (75 μm i.d.) packed in-house in a pulled emitter with RP ReproSil-Pur C18-AQ 3 μm resin (Dr. Maisch GmbH). Elution from the analytical column was performed with a linear gradient from 5% to 35% phase B (90% acetonitrile with 0.1% formic acid) over 20 min for protein identification and 50 min for quantitative analysis, respectively.
(§5) All samples were analysed three times, yielding nine MS/MS experiments for each fibril for both plasma and CSF. For the area-based extracted ion chromatogram (XIC) quantification, the acquisition method was set up as an information-dependent acquisition (IDA) experiment collecting up to 25 MS/MS spectra in each 1.6 sec cycle using an exclusion window of 6 sec.
(§6) XIC quantification was based on the average ion intensity of the three most abundant peptides for each protein. Only proteins quantified in at least four out of nine MS/MS experiments per fibril were included in the quantification. The total ion scores were visualized after grouping the proteins according to function (Figure S11).
(§7) For each MS/MS experiment, the ion intensities of the individual proteins were normalized to the total ion intensity of that MS/MS experiment to achieve a relative protein composition. The contribution of each protein was averaged over all nine MS/MS experiments (Tables 1 and 2).

C-36 fibrils = biological target: T1, C-36 fibrils (Homo sapiens, UniProt P01009); assay type: binding; settings: 50:1 w/w plasma protein:fibril
T1 construct: the 36 residue C-terminal fragment of α1-antitrypsin (C-36)
T1 sequence (P01009 383-418 limits assumed): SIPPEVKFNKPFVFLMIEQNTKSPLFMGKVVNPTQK
Description: as §1, §2, §3, §4, §5, §6, §7

glucagon fibrils = biological target: T2, glucagon fibrils (Homo sapiens, UniProt P01275); assay type: binding; set-up: key to Identification status of plasma protein bound: Glucagon: *: Identified, but not quantified; —: Not identified in any of the samples; settings: for Relative composition of plasma proteins bound: Glucagon: 50:1 w/w plasma protein:fibril
T2 construct: fibrils of the peptide hormone glucagon
T2 sequence (P01275 53-81 limits assumed): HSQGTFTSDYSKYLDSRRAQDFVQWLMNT
Description: as §1, §2, §3, §4, §5, §6, §7

Ab1 fibrils = system: T3, Ab1 fibrils; assay type: binding, human; set-up: key to Identification status of plasma protein bound: Ab1: *: Identified, but not quantified; —: Not identified in any of the samples; settings: for Relative composition of plasma proteins bound: Ab1: 50:1 w/w plasma protein:fibril
T3 construct: Synthetic amyloid β peptide 1–40 was purchased from Caslo Aps (Lyngby, Denmark); purchased Caslo Aps (Lyngby, Denmark); host or cells: synthetic peptide
Description: Plasma and CSF solutions were centrifuged (40,000 g, 20 min) to remove any aggregates. The protein concentration was determined using 280 nm absorbance assuming 1 Abs = 1 mg/mL. […] Control samples (without fibril material) were prepared similarly. All samples were incubated at room temperature for one hour under gentle agitation. Fibrils and fibril-bound proteins were pelleted by centrifugation at 17,000 g for 30 minutes. The supernatant (175 μL) was removed and the aggregate was re-suspended in 175 μL PBS and pelleted again before further preparation for gel analysis and spin-filter assisted digest for quantitative MS/MS.
as §2, §3, §4, §5, §6, §7

FAS4-AD aggregates = system: T4, FAS4-AD aggregates; assay type: binding, human; set-up: key to Identification status of plasma protein bound: FAS4-AD: *: Identified, but not quantified; —: Not identified in any of the samples; settings: for Relative composition of plasma proteins bound: FAS4-AD: 50:1 w/w plasma protein:fibril; for Identification status of plasma protein bound: FAS4-AD: symbol cells
T4 construct: aggregates of a mutated version of the FAS1-4 domain of TGFBIp
Description: as §1, §2, §3, §4, §5, §6, §7

Ab2 fibrils = system: T5, Ab2 fibrils; assay type: binding, human; set-up: key to Identification status of plasma protein bound: Ab2: *: Identified, but not quantified; —: Not identified in any of the samples; settings: for Identification status of plasma protein bound: Ab2: symbol cells; for Relative composition of plasma proteins bound: Ab2: 50:1 w/w plasma protein:fibril
T5 construct: Two structurally distinct fibrils of the Aβ(1–40) peptide associated with AD
Description: as §1, §2, §3, §4, §5, §6, §7

Apolipoprotein C-I: plasma protein bound to fibrils (TPDVSSALDKLKEFGNTLEDKARELISRIKQSELSAKMREWFSETFQKVKEKLKIDS; UniProt P02654 27-83, looked up)
Relative composition of plasma proteins bound: αSN (αSN fibrils): 5.5 ± 2.1 % of total protein
Relative composition of plasma proteins bound: C-36 (C-36 fibrils): 0.6 ± 0.4 % of total protein
Identification status of plasma protein bound: Glucagon (glucagon fibrils; symbol cells): *
Identification status of plasma protein bound: Ab1 (Ab1 fibrils; symbol cells): *
Relative composition of plasma proteins bound: FAS4-AD (FAS4-AD aggregates): 1.8 ± 0.1 % of total protein
Identification status of plasma protein bound: Ab2 (Ab2 fibrils): *

Coagulation factor IX: plasma protein bound to fibrils
Relative composition of plasma proteins bound: αSN (αSN fibrils): 0.3 ± 0.1 % of total protein
Relative composition of plasma proteins bound: C-36 (C-36 fibrils): 0.2 ± 0.0 % of total protein
Relative composition of plasma proteins bound: Glucagon (glucagon fibrils): 0.1 ± 0.0 % of total protein
Relative composition of plasma proteins bound: Ab1 (Ab1 fibrils): 0.2 ± 0.0 % of total protein
Identification status of plasma protein bound: FAS4-AD (FAS4-AD aggregates): *
Relative composition of plasma proteins bound: Ab2 (Ab2 fibrils): 0.3 ± 0.1 % of total protein

Vitamin K-dependent protein S: plasma protein bound to fibrils
Relative composition of plasma proteins bound: αSN (αSN fibrils): 2.5 ± 0.1 % of total protein
Relative composition of plasma proteins bound: C-36 (C-36 fibrils): 0.6 ± 0.1 % of total protein
Relative composition of plasma proteins bound: Glucagon (glucagon fibrils): 0.8 ± 0.1 % of total protein
Relative composition of plasma proteins bound: Ab1 (Ab1 fibrils): 1.1 ± 0.0 % of total protein
Identification status of plasma protein bound: FAS4-AD (FAS4-AD aggregates): *
Relative composition of plasma proteins bound: Ab2 (Ab2 fibrils): 1.3 ± 0.1 % of total protein

Apolipoprotein C-III: plasma protein bound to fibrils
Relative composition of plasma proteins bound: αSN (αSN fibrils): 11.7 ± 3.0 % of total protein
Relative composition of plasma proteins bound: αSN (αSN fibrils; listed as ApoC-III): 11.7 % of total protein
Relative composition of plasma proteins bound: C-36 (C-36 fibrils): 4.9 ± 0.3 % of total protein
Relative composition of plasma proteins bound: Glucagon (glucagon fibrils): 0.3 ± 0.0 % of total protein
Relative composition of plasma proteins bound: Ab1 (Ab1 fibrils): 0.9 ± 0.1 % of total protein
Identification status of plasma protein bound: FAS4-AD (FAS4-AD aggregates): *
Identification status of plasma protein bound: Ab2 (Ab2 fibrils): *

Fibrinogen γ chain: plasma protein bound to fibrils
Relative composition of plasma proteins bound: αSN (αSN fibrils): 7.7 ± 1.3 % of total protein
Relative composition of plasma proteins bound: C-36 (C-36 fibrils): 11.7 ± 2.0 % of total protein
Relative composition of plasma proteins bound: Glucagon (glucagon fibrils): 6.7 ± 0.3 % of total protein
Relative composition of plasma proteins bound: Ab1 (Ab1 fibrils): 9.8 ± 0.3 % of total protein
Relative composition of plasma proteins bound: FAS4-AD (FAS4-AD aggregates): 1.5 ± 0.4 % of total protein
Relative composition of plasma proteins bound: Ab2 (Ab2 fibrils): 7.0 ± 0.3 % of total protein

Fibrinogen β chain: plasma protein bound to fibrils
Relative composition of plasma proteins bound: αSN (αSN fibrils): 7.7 ± 2.3 % of total protein
Relative composition of plasma proteins bound: C-36 (C-36 fibrils): 9.1 ± 0.8 % of total protein
Relative composition of plasma proteins bound: Glucagon (glucagon fibrils): 8.9 ± 1.1 % of total protein
Relative composition of plasma proteins bound: Ab1 (Ab1 fibrils): 11.8 ± 1.1 % of total protein
Relative composition of plasma proteins bound: FAS4-AD (FAS4-AD aggregates): 1.8 ± 0.2 % of total protein
Relative composition of plasma proteins bound: Ab2 (Ab2 fibrils): 7.5 ± 0.9 % of total protein
